# Measurements published in the DeepSol protein solubility set.
# Test: soluble on expression in E. coli; label from the status in PepcDB or PDB records
row,Sequence,soluble on expression in E. coli
1,DSSALPTKRKTVKLFWRELKLAGGHGVSASRFGPCATLWASLDPVSVDTARLEHLFESRAKEVLPSKKAGEGRRTMTTVLDPKRSNAINIGLTTLPPVHVIKAALLNFDEFAVSKDGIEKLLTMMPTEEERQKIEEAQLANPDIPLGPAENFLMTLASIGGLAARLQLWAFKLDYDSMEREIAEPLFDLKVGMEQLVQNATFRCILATLLAVGNFLNGSQSSGFELSYLEKVSEVKDTVRRQSLLHHLCSLVLQTRPESSDLYSEIPALTRCAKVD,not soluble
2,EHGPVTFVPDTPIESRARLSLPKQLVLRQSIVGAEVGVWTGETIPVRTCFGPLIGQQSHSMEVAEWTDKAVNHIWKIYHNGVLEFCIITTDENECNWMMFVRKARNREEQNLVAYPHDGKIFFCTSQDIPPENELLFYYSRDYAQQIGVPE,soluble
3,MENQTTDLENMVGASRAGLTRRGFISAGALCGAAMFLGGNILSRTVLANSVSAASGALLGFESIPTATADSISLPKGYTSSVLISWGQPLQANGPAFDPSGKGTAQAQEVQFGDNNDGMCLFPMPGHKDRALMAINNEYTNYRYLFDHGKEPQSAEEVQKALAAEGVSVIEVQQKQGKWQFVQDSRYNRRVHGNTPIKLSGPAAGHDWLKTDADKGGTHALGTFQNCSSGQTPWGTYLTCEENFTDCFGSSNPEQKFDAGMKRYGVVAASKEINWHPHDPRFDVAKNPNEVNRHGWVVEIDPFDPKSTPVKRTALGRFKHENAAFTQTKGGRAVVYMGDDERGEFIYKFISRDKIDHQNPKANRDLLDHGTLYVAQFDAGDSNPDHPKGKGQWIELTHGKNGLDAAASFNNQAEVLIHARLAASVVKATRMDRPEWIVVSPKDGQVYCTLTNNIKRGDEGQPVGGPNPRAKNQYGQILRWSEEGSNASAMAFDWDLFVVAGNPAVHAGTPQAGSSNINAQNMFNSPDGLSFDEAGRLWIQTDGDSSNKGDFAGMGNNQMLCADPASGEIRRFLVGPVGCEITGISFAPDYKTMFIGIQHPGENGGSTFPEHLPNGKPRSSVMVITREDGGVIGALEHHHHHH,soluble
4,MMRCPECSTEGWRVLPLTVGAHVKEGLWSKIKGDFYFCSLESCEVVYFNEQTVFRKGELKTRVGVKEREEPKPVCYCNRVTEKMLLEAAEKFGKEKAVEITGAGKGKWCVVTNPSGRCCHWHLERLGFPV,soluble
5,MTIGIIGSGALGSGIARILASKGISAIISNSRGPESLASLVRELGGSIKAGTAEEAARADIVFAAVRWVDAEKVLSSLPAWEGRIVIDATNPVEFIDPDSPDANDPTNPLAAYGIKAVDLHGKYSSEIFRQFVPGARVVKAFNHLDANVFSAPEVTGGKRVLFYSGDDAAAKTEVRKIIEDTGFVPVDLGTLDVGGPLASLPFGPLAAQNFIRVLEHHHHHH,soluble
6,MESPNMRKRLIEMESSLEVKKTATTVKQEPLETSSPLLASMISTAPNPPPTSPHALNYLTLLAAFRQFLHGYIQAGGDENLANTLGNYVAALPMPPNSLNPIGPLNAPKSPFKQQQKFHSIIKAVKREPVSEPAQNAGSGDSSVTLSSALGEDAVPQNRGSCTSMKPVPRFVMLPVVAAQSASPSASGPTSEIQQLREAAFGRYKNVLCVICNEWICSRNRKNHIEAHLNYRPYKCSACSYARRREIFVDQHIRTQHKGVEGVVMLSDVDLHVAMEVDRLAEECVTRTRKIIDTMQEKKDGDFGENKDFDEKALQMMLAEEAENKVVVIESVSQVRPKVANYHRRQRTKVLKKIYDTDVAKQTELKIVKDEEGGVPTMSIKLEEGFEINLEDLMKMVGAGSSITDSNEPGPSEIKKELAEV,not soluble
7,RDLLEQSLPDDIEEEIEKIICSESMVKGVRRIRTRNIGNYYAVEADILMDGGLSVALSHAATQRVEKLLRGRYGQPTHIVIHVEPFS,not soluble
8,MSLEVGFAPAEFTVTDKDGRKVFLSDYKGKYVLIYHWGLCPGTFWVNPKITDLYQKYHEKGLEVLGFTRDDLLKSLQGSSEEFKKDERVQGLLSHPWTTVYTEDEGNGFIVKDLYFSGVPILMLISPDGITLARGYTKAYEEVKNLLDRNLGNKEGHHHHHH,soluble
9,MAYATVEDMVARFGELEVLQLTDRNNEGLIDREVAQTALVDATAEIDAYLGRFRRPFEDLPPILVRLCCDIARYRLTAAQGVLITDEIRNRYKIDVLDLLRAMAKGEVQLGVDDSGEEVAAGEDGIVFVNGKNKVFGRDH,not soluble
10,MPKTEDKYLPLMSKEKIEKALAFHKSFPQYSETPLAELNHMAAYLGLNDFFVKDESYRFGLNAFKVLGGSFAMANYIAEKLKKDVSELTYDELTSDQLRSAFGQATFFTATDGNHGRGVAWAANKLGQKSVVLMPKGSTQTRKENIEKEGATVTIEEVNYDECVRMANKMAEETENGVMVQDTAWDGYEKIPTWIMQGYGTMALEASQQLRKFGSERPSHVFVQAGVGSLAGAVIGYFANAFPENPPIMVVVEAQAADCLYQSAIKKDGEIRFVDGDLQTIMAGLACGEPNTISFDILKNHTSFFVSAPDWVSEKGMRMLGAPLKGDPQVVSGESGAVAMGLVATVMQDPDYQELHEALQLDETSNVLMFSTEGDTDPDNYKKILWR,not soluble
11,MGSDKIHHHHHHMPRYQHIARQLKTAIEQGELAPGTRLPSSRTWAQELGVSRATVENAYGELVAQGWLERRGQAGTFVSNALRFETAPPIPAVFAGESPEPKPFQMGLPALDLFPREKWARVMGRRLRTQTCFDLALGDVCGEAILRQAIVDYLRVSRSIECLPEQVFITSGYADSMRLILRTLSVPGDSMWVEDPGFPLIRPVITQEGITLAPIPVDADGLNVAAGMRDCPQGRFALVTPAHQSPLGVALSLTRRRQLLAWAANVQAWIIEDDYDSEFRYHGKPLPPLKSLDAPQRVIYAGTFSKSLFPALRTAWLVVPIKQIEHFRQQASLMPCSVPLLWQHTLADFIRDGHFWRHLKKMRQHYAQRRLWIEEALAEQGFVVTLQKGGIQLVIEVEGDDKAQVAKANQAGLAVQALSRWRVVSSGKGGILLSFTNITSAGMAKQVACQLRQAIQ,not soluble
12,LPHLMKYMGSKRELLDFIISSINDLDIESNWFCDLFSGTSVVGCSLKDEYNVQINDIQIYTSIFANTYLPNINKLINSTELEKIKDRVLFYVDEFYRKYPDLIFDYNSIDNYEKLTKLEIQQQNLIYSNFEIGFHLFVKYYSGTYWSYTQCVWIDSIRAVAEEYKGKSDYYIILSSLIYAMSYTSQSTGHFAQFRDVTESNMHDIMLYRIRDIWTYFEKKFLEILNMVDVEATNRYTITTLDYLDCLRLIERNTIVYADPPYSSVHYSRFYHAIETLIRYDYPNVKYKGRYREDRHQSPFGKKTEVKNAFGKLFKGVKNKNSHLILSYSDNGMITQDEIMEIGNSIMGNQYKGDIQVKEYIHSKMGRSDIHSMGVNELIISYKRQ,not soluble
13,MSLFLITNRKLVNREKYFNTIEEAGKYGVKNIILREKDLSTKELIKIYIKIKELVTEETNIIINSNIEATMILKEKFIHLSFKDFKRNLEEVKSLQVGVSVHSILEAIEADRLGASYILVSPIFETQCKKGVTPKGINFIKEIKEKVNCNVIALGGINEHNFKEVLGAGADDFACMSLLFMSNNIKKSLYTFKSLEGHHHHHH,not soluble
14,MGSDKIHHHHHHMANVVLFGLQDYAELAHYYLEHDSPHQVAAFCVDRQYIPDSGTFKNLPVVAFEDVAHTHPPGDFSFFAPMSPKHMNRDRERIFNAIKAHGYTLISYVSSRATKFDNEIGENCFILEDNTLQPFTRIGDNVVLWSGNHIGHHGRIGDHVTMTSHVVMSGHCDIGAYSFVGVNATLRDGVTIGEGTFVAMASAITKNTEPWSVYRGNPAVKLTMPSTEVKF,not soluble
15,SCIIFFKFDPRPVSKNAYRLILAANRDEFYSRPSKLADFWGNNNEILSGLDMEEGKEGGTWLGISTRGKLAALTNYLQPQLDWQARGRGELVTHFLTTDVDSLSYLKKVSMEGHLYNGFNLIAANLSTAKGDVICYYGNRGEPDPIVLTPGTYGLSNALLETPWRKLCFGKQLFLEAVERSQALPKDVLIASLLDVLNNKEAQLPDPAIEDQGGEYVQPMLSKYAAVCVRCPGYGTRTNTIILVDADGHVTFTERSMMDKDLSHWETRTYEFTLQS,not soluble
16,TAMRALIESLPTITEGEGRFVPYNDDEGGEEENVCTTEHVEMAKAKNWKVLTSWGEPFPGITALISIEGESEYSVYAQDGILYLSGMEQGLPVQ,not soluble
17,NPAIAMTEKEIKEYGFPFDARFCSLPLVHADDLKQIFGRYASEVCCRYLRPFDSDYYTLATKNFYQTDIAALDPTAVVGGEDTIRGLMRVATEVCFVIESGKPGAFHPRIHFEKSFRYAHLSLEEKKAWQRLSDDYFHKRNDDLWKQEALSRLIPLLSSTDMLVCVEDLGMIPPAVPVVMEQLQLLSLILERISKEPGQDFADMSRQPYCSVCTTSTHDMAPLRLWWQENELPRRHYYSMILGEKGTAPETCTPETARRILRQHLLSTSMLAIFPLADWLSLSGELQGIVAPEDEQINKPEISDHYWRYRMPISIESLSEDYRELNESIASLIRTSGRG,not soluble
18,MTRPHQPRIDLNHGFLRFIRRNQVDRDEYNRVHEERKSEIRERIGSSDSSQDGEEKAQSNVYVPPHLRRQKKENEEKFSALKASRSQSQSDTGSEEGEGASGGGEASCPIQQKQKAFDENVRRQVRRRIERTHPTVDDICIVLANYSLQEAASKNSENSNEDLFELVLTLKSGEQKTIGVPRNTQAARLAKSLSREHHFSDSQCRNLRIFIEEQLELRFAREKSTATSSDASIPGSPTSSSESSIIEFSA,not soluble
19,MVFGFLKGVRRRPPLNRACPPIPESKSNESIMSHASRISEHQKAAAAAAATSETTTGDLVIENRNVVDVLHRLDANSNIALPPSSNIRKSKEKKAKMSSTPRSPLMSMANSVKSKLTKITHLGRSSNESSGSSSNIKTSQSFSGIRQPKQIPKRIDQNANRVIKSSSMEVPSTSKVCIPQDPTPLIDDKIEEISEAGLISKSEMAPPKPKEHVCVKLEEDVLVVTKEFDERYPGQKRSASPDVPMVEESQTMSEVDQLPSEQVAETFSEDNVNELDNNANQKTPGPVRRIIQETTTTTITTTTFDSPIPIIEKMEVERPEEAEDVIVIEAPEPVQPPIPSPKKERFTSPERYILLVKTPEALRKHRTLTIGEKDPTEVDTEEKIQYTRLETVKFKEVKEKVKYEEPVPKEKFILTMKTPEAIRRHHTFTIRDKSPEEMNKITKITKSQSDVHVSKRAAKKLVKQASEPERRDLFEEKEDVVPEPKFVIVMKTPECLRRHHTFTIGDRPKSPDYPYIEEGEITEPIATIGPPADRRKKEEAKERKKREWEEYETPPKEKFILTTTTPLAIRKYQTFVVEPKDEKTALPQSASADAVMLAKKGKVQRKNVTSSIQQLSLDEPITSPSRKPVSPEPRHLFVMGGRRSTTPQEDRKVPEPPRNLKLDTDRSQSDHAELLEERKSTMSGDLTSPEEEIPMDTNLTPTTEEVMEAVIVSRRIEGLMTSPIEEEPEGLTSSIRDLSIRSLAKETERPAPVFTPPSPPKENPFHVMTVPKSTLTSSSESAMPMTSSSSSIRAKPNQLPIKKTIQVVDPMHIVELKPEHKSKKEALAAKSLRNAGKMLTPSFLRKEKKGPKKSLYAKTTSSGRQHISEKKEK,not soluble
20,SKYVDRVIAEVEKKYADEPEFVQTVEEVLSSLGPVVDAHPEYEEVALLERMVIPERVIEFRVPWEDDNGKVHVNTGYRVQFNGAIGPYLGGLRFAPSVNLSIMKFLGFEQAFKDSLTTLPMGGAKGGSDFDPNGKSDREVMRFCQAFMTELYRHIGPDIDVPAGDLGVGARELGYMYGQYRKIVGGFYNGVLTGKARSFGGSLVRPEATGYGSVYYVEAVMKHENDTLVGKTVALAGFGNVAWGAAKKLAELGAKAVTLSGPDGYIYDPEGITTEEKINYMLEMRASGRNKVQDYADKFGVQFFPGEKPWGQKVDIIMPCATQNDVDLEQAKKIVANNVKYYIEVANMPTTNEALRFLMQQPNMVVAPSKAVNAGGVLVSGFEMSQNSERLSWTAEEVDSKLHQVMTDIHDGSAAAAERYGLGYNLVAGANIVGFQKIADAMMAQGIAW,soluble
